# Source: US20110159598A1 (LES LABORATOIRES SERVIER, published 2011)
# No end group written: not given here.
# Assays:
# K63 polyubiquitin chains = assay: cell-based or functional assay
# [1] = molecular target: human NEMO mutant A323P, FLAG-tagged (human) (UniProt Q9Y6K9); assay: cell-based or functional assay
# [2] = molecular target: T1, CC2-LZ domain of NEMO (species and construct not stated for this assay) (Mus musculus (Mouse), UniProt O88522 251-337); assay: fluorescence polarisation, N-terminally Fluorescein- or Cy5-labelled peptide, pH 7, ambient temperature, 20 mM Tris-Acetate-MES, 200 mM KCl, 0.5% Tween 20
# T1 construct: not shown: N-terminal histidine tag and vector residues from pET28
# Method: These measurements are carried out at pH 7 and at ambient temperature in a stringent buffer corresponding to 20 mM Tris-Acetate-MES containing 200 mM potassium chloride and 0.5% Tween 20. They are carried out by fluorescence polarisation with the aid of peptides coupled at the N-terminal with the fluorophores Fluorescein or Cy5. For forming the peptide probes of the invention, the peptides can be coupled to any kind of fluorophore.
# X-ray crystal structure = molecular target: the molecule itself; assay: X-ray crystal structure
# [3] = molecular target: the molecule itself; assay: gel filtration on Superdex 75, same elution profile as the wild-type CC2-LZ protein
molecule,measurement,setting,value
"human NEMO mutant F312A, FLAG-tagged (from UniProt Q9Y6K9 1-419)",inhibition of TNFα-dependent activation of the NF-κB pathway (Igκ-luciferase reporter in NEMO-deficient mouse embryo fibroblasts),K63 polyubiquitin chains,78%
"human NEMO mutant A323P, FLAG-tagged (from UniProt Q9Y6K9 1-419)",inhibition of TNFα-dependent activation of the NF-κB pathway (Igκ-luciferase reporter in NEMO-deficient mouse embryo fibroblasts),[1],95%
"TVAQLKAQFDIHQAEHQAVKHELEKIEEDFEYIEEQLEQLQREFNKLKSG (also: N-terminal Fluorescein or Cy5, Peptide probe designed from the crystal structure of the CC2-LZ domain) [peptide P8RD]",Kd,[2],60 nM
"CC2-LZ domain of murine NEMO (aa 251-337), N-terminal histidine tag (other, Expressed in E. coli BL21-gold (DE3); Forms a parallel coiled-coil dimer in the crystal; also called CC2-LZ protein; Nemo CC2LZ; not shown: N-terminal histidine tag from plasmid pET28) MQLEDLRQQLQQAEEALVAKQELIDKLKEEAEQHKIVMETVPVLKAQADIYKADFQAERHAREKLVEKKEYLQEQLEQLQREFNKLK",binding result,X-ray crystal structure,binds
"human CC2-LZ domain of NEMO (Tax CC2-LZ, Met 215 to Glu 362) mutant F312A (other, also called CC2-LZ F312A; not shown: vector-derived tag of pET-28b (protein purified on Ni-NTA)) MERQAASEEKRKLAQLQVAYHQLFQEYDNHIKSSVVGSERKRGMQLEDLKQQLQQAEEALVAKQEVIDKLKEEAEQHKIVMETVPVLKAQADIYKADAQAERQAREKLAEKKELLQEQLEQLQREYSKLKASCQESARIEDMRKRHVE",binding result,[3],binds
"TVAQLKAQHDIYEAEHQAVEHELEKLEEELEYIKEELEQLQREFNKLSG (also: N-terminal Fluorescein or Cy5, Peptide probe designed from the crystal structure of the CC2-LZ domain) [peptide PH4]",Kd,[2],170 nM
